Test results from patent US10519238 (Dana-Farber, dated 2019).

What was measured:
[1] = target: T1, endogenous murine Gal1 (galectin-1) in lysates of the murine melanoma line B16-F10 (mouse, UniProt P16045 2-135); assay: Western blot of B16-F10 cell lysate, antibody titration
T1 construct: Endogenous protein in cell lysate, seen on Western blot; also called mouse Gal1
Description: (§1) WB analysis of cell lysates derived from human Hodgkin lymphoma line, L428 and murine melanoma line, B16-F10. Lysates were probed with 8A12 at different titration showing a specific band of Gal1 (~14 kDa), 8A12 recognizes endogenous human and murine Gal1 at similar range of titres.

[2] = target: T2, recombinant human galectin-1 (R&D Systems) (human, UniProt P09382 2-135); assay: SPR (BIAcore 3000, 25 C), 8A12 captured via anti-mouse antibody, galectin as analyte, 1:1 Langmuir fit
T2 construct: Bought from R&D Systems; also called rhGal1; human galetin-1
T2 sequence (P09382 2-135 limits assumed): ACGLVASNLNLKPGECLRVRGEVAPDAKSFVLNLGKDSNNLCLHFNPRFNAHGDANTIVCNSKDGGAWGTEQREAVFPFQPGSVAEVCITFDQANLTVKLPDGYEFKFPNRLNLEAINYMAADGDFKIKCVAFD
Method: (§2) Surface Plasmon Resonance (SPR) analyses (also called Biomolecular Interaction Analysis, BIAcore) were also conducted in order to further define the biophysical properties (e.g., $kon$, $koff$, $koff/kon$ (K_D) of Gal1's interaction with the 8A12 mAb. SPR experiments were performed at 25° C. in the standard BIAcore running buffer HBS-EP on a BIAcore 3000 Instrument (BIAcore). In brief, anti-mouse antibody was first captured on the CM-5 sensor chip ((GE HealthCare). Afterwards, approximately 250 response units (RU) of anti-Gal1 mAb 8A12 were immobilized (with exception of ~350 RU for rmGal1 assay) and followed by various dilutions of recombinant galectin (human galetin-1, 2, 3, 4, 7, 8, 9 or murine galectin-1 (mGal1), from R&D Systems) to assess the binding of galectin 8A12. All data are shown after subtraction from a channel loaded with buffer alone. Data analysis to obtain the binding curves shown and equilibrium dissociation constant (KD) was performed using BIAevaluation 3.1 (BIAcore) by globally fitting the data to a simple 1:1 (Langmuir) binding model.

[3] = target: T3, recombinant murine galectin-1 (R&D Systems) (mouse, UniProt P16045 2-135); assay: as above
T3 construct: Bought from R&D Systems; also called rmGal1; mGal1
T3 sequence (P16045 2-135 limits assumed): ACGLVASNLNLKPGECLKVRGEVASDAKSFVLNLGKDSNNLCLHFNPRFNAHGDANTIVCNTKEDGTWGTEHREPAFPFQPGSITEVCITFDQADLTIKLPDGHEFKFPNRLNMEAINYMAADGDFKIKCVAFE
Method: as §2

[4] = target: T4, endogenous human Gal1 (galectin-1) in lysates of the human Hodgkin lymphoma line L428 (human, UniProt P09382 2-135); assay: Western blot of L428 cell lysate, antibody titration
T4 construct: Endogenous protein in cell lysate, seen as a band of ~14 kDa on Western blot; also called hGal1
T4 sequence (P09382 2-135 limits assumed): as the sequence (P09382 2-135 limits assumed) above
Description: as §1

[5] = target: T5, recombinant GST-tagged full length human Gal1 (F7) (human, UniProt P09382 1-135); assay: Western blot
T5 construct: Produced in E. coli; also called GST-F7; not shown: glutathione S-transferase (GST) tag
T5 sequence (P09382 whole entry): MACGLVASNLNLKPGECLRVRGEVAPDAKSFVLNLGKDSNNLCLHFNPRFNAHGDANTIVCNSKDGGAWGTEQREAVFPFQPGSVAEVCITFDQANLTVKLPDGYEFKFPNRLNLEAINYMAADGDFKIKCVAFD
Method: Anti-Gal1 monoclonal antibodies were generated and were determined to cross-react well with both human Gal1 and mouse Gal1 (FIG. 1). […] Six recombinant human Gal1 fragments (covering the N-terminal, CBD, post-CBD sequences) named F1, F2, F3, F4, F5, F6 and the full length protein F7 in fusion with GST-tag were produced in E. coli (FIG. 2).

[6] = target: T6, recombinant human galectin-7 (R&D Systems) (human, UniProt P47929 2-136, limits assumed); assay: SPR (BIAcore 3000), 8A12 captured via anti-mouse antibody, galectin as analyte
T6 construct: also called Gal7
T6 sequence (P47929 2-136 limits assumed): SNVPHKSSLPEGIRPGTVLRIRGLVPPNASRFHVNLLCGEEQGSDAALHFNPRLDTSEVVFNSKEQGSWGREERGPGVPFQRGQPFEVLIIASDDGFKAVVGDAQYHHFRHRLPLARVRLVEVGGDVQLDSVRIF
Method: as §2

[7] = target: T7, recombinant human galectin-9 (R&D Systems) (human, UniProt O00182-2 2-323, limits assumed); assay: as above
T7 construct: also called Gal9
T7 sequence (O00182 other isoform, or with tags, fused parts or gaps limits assumed): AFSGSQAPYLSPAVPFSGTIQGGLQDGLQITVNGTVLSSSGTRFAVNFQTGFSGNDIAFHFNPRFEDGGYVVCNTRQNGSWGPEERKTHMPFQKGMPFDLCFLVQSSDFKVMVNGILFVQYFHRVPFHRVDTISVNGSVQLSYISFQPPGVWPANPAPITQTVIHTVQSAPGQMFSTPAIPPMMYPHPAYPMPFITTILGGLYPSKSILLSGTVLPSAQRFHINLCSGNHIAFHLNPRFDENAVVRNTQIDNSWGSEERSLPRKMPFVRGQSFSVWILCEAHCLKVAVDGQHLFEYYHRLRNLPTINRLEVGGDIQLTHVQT
Method: as §2

[8] = target: T8, recombinant human galectin-4 (R&D Systems) (human, UniProt P56470 2-323, limits assumed); assay: as above
T8 construct: also called Gal4
T8 sequence (looked up): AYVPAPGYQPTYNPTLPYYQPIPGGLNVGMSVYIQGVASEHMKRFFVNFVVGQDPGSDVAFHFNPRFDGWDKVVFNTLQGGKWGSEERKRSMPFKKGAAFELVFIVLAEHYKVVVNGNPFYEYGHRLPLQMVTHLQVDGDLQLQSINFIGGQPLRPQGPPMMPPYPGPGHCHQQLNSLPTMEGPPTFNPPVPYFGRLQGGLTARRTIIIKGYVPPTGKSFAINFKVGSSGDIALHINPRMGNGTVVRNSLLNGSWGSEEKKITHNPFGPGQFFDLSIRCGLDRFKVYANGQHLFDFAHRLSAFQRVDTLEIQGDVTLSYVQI
Method: as §2

[9] = target: T9, recombinant human galectin-2 (R&D Systems) (human, UniProt P05162 1-132, limits assumed); assay: as above
T9 construct: also called Gal2
T9 sequence (looked up): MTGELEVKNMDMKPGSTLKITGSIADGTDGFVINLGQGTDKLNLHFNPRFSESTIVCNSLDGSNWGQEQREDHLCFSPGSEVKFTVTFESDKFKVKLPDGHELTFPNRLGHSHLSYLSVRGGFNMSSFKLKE
Method: as §2

[10] = target: T10, recombinant human galectin-8 (R&D Systems) (human, UniProt O00214 1-317, limits assumed); assay: as above
T10 construct: also called Gal8
T10 sequence (looked up): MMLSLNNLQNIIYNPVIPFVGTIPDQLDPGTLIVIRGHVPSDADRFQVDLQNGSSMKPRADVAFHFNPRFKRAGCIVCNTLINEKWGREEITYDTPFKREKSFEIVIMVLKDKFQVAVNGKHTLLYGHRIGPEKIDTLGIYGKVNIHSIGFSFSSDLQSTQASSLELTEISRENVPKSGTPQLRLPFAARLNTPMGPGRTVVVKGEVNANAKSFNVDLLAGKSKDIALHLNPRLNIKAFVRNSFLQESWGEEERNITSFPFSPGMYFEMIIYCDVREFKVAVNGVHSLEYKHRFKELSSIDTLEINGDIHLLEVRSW
Method: as §2

[11] = target: T11, recombinant human galectin-3 (R&D Systems) (human, UniProt P17931 2-250); assay: as above
T11 construct: also called Gal3
T11 sequence (P17931 2-250 limits assumed): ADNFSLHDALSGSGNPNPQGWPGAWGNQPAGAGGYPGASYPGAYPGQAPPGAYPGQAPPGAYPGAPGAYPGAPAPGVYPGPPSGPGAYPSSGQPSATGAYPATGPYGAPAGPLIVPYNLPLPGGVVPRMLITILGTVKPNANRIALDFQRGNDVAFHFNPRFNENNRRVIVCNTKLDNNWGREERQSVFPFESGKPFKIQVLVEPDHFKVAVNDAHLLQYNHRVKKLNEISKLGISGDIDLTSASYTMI
Method: as §2

T1 sequence (P16045 2-135 limits assumed): as the sequence (P16045 2-135 limits assumed) above

B1: anti-Gal1 monoclonal antibody 8A12.H9.H10 (antibody, V domains shown)
VH: QAYLQQSGAELVRPGASVRMSCKASGYTFTRYNMHWVKQTPRQGLEWIGRIYPGNGDTSYNQKFKGKATLTVDKSSSTAYMQLSSLTSEDSAVYFCTVWDYWGQGTTLTVSS
VL: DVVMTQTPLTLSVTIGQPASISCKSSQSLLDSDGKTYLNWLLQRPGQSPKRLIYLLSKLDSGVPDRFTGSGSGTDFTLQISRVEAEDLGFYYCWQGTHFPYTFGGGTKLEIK
notes: Murine monoclonal antibody from a hybridoma with a kappa light chain; Signal peptide limits are stated in base pairs and were converted to residues; also called 8A12 mAb; 8A12 antibody
binding result [1]: binds | binding result [2]: binds | binding result [3]: binds | binding result [4]: binds | binding result [5]: binds | binding result [6]: no binding | binding result [7]: no binding | binding result [8]: no binding | binding result [9]: no binding | binding result [10]: no binding | binding result [11]: no binding
